This note sets out measurements from patent US8586034B2, “Cytomegalovirus disintegrin-like peptides” (priority 2004, dated 2013).

As a reminder, the IC50 is the concentration that gives 50% inhibition.

Data set [1] is described as follows: Solubility of purified gBDLD in dialysis buffer. It is filed as physicochemical. To be noted: 55 mM MES, pH 5.5, 300 mM NaCl. The method, then: DNA sequence corresponding to amino acids 57-146 of HCMV AD 169 glycoprotein B disintegrin-like domain (“gBDLD”) was cloned into the bacterial expression vector pET-28a containing an N-terminal His-Tag with thrombin cleavage site and kanamycin resistance. (Commercially available from Novagen, San Diego, Calif.) gBDLD production was induced by the addition of 1 mM isopropyl-βD-thiogalactopyranoside (IPTG). E. coli Tuner strain containing pET-28a:gBDLD was grown at 37° C. in Luria-Bertani medium containing kanamycin (50 μg/mL) to an optical density at 600 nm of approximately 0.6. IPTG (1 mM) was added and the plates were incubated continuously for 4 h at 37° C. Cells were harvested by centrifugation at 4000 r/min for 10 min and pellets were resuspended in 1% Triton X-100/Ni-NTA buffer (300 mM NaCl/50 mM Tris-HCL pH 7.9) and lysed by 3×60 s bursts of sonication. The lysate was centrifuged at 15,000 r/min for 15 minutes at 4° C. The 8M urea/Ni-NTA fraction was then poured into a chromatography column containing nickel-nitriloacetic acid agarose (Ni-NTA) beads at 4° C. and allowed to flow through. […] Fractions containing protein were determined by measuring the absorbance of each fraction at 214 nm. Fractions that corresponded to absorption peaks were analyzed by sodium dodecyl sulfate polyacrylamide electrophoresis (SDS-PAGE) to determine the size of the protein. […]

Data set [2] has as its target T1, β1 integrin (Homo sapiens, UniProt P05556).
T1 construct: endogenous in cells; host or cells: Normal Human Dermal Fibroblasts (NHDF), detergent lysate
Kind of data set: Integrin co-immunoprecipitation assay, β1. Format: binding. To be noted: human fibroblast lysates, nickel beads. The method, then:
(§1) A T-175 flask of NHDFs was grown to complete confluence, washed three times in MES buffer and lysed in 1 mL MES buffer+1% TX-100 (a detergent). Lysate was spun at 10,000 g for 10 minutes to remove cell debris. Cell lysate (350 μL) was then incubated with 20 μg gBDLD for 4 hours at 4° C. The lysate+gBDLD mixture was then incubated with 50 μL Ni beads overnight at 4° C. Nickel beads were then washed three times and protein eluted by boiling and then adding reducing SDS-PAGE buffer. Proteins were separated by SDS-PAGE and Western blotted for β1 integrin (Chemicon-1965) or β3 (Chemicon) as previously described.^48
(§2) To identify the cellular receptor for gBDLD we performed co-immunoprecipitation studies. Briefly, gBDLD was incubated with human fibroblast lysates and pulled down with nickel-conjugated agarose beads.
(§3) Because gBDLD contains a known β1 integrin binding motif, gBDLD bound to its cellular receptor was isolated by SDS-PAGE and then Western blotted for either β1 or β3 integrin. The resulting gels are shown in FIG. 10 (β1) and FIG. 11 (β3).

Data set [3] deals with HCMV-GFP. Put plainly: HCMV infectivity assay (HCMV-GFP, flow cytometry). To be noted: human fibroblasts. It is filed as cell-based, Human cytomegalovirus. The method, then:
NHDFs were washed three times with MES buffer followed by the addition of gBDLD for 60 minutes at 37° C. Cells were then washed twice with MES buffer, three times with PBS and inoculated with HCMV-GFP (MOI=0.5) in serum-free DMEM. After 60 minutes, virus was removed and a 30 second, low-pH citrate wash was performed to remove extracellular virus. Twenty-four hour, post-infection cells were harvested and flow cytometry was performed to assay for GFP-positive cells.
FIG. 9 is a graph depicting the results of an assay to determine if gBDLD blocks NHDF cells from infection with HCMV. The infectivity assay was performed as described in the earlier examples. Briefly, gBDLD or BSA was added to human fibroblasts for 60 minutes. Cells were then washed, followed by HCMV-GFP challenge for 60 minutes. Cells were then citrate washed to remove any extracellular virus and incubated overnight. Flow cytometry was performed to assay for GFP positive versus total cells. As is readily observed from FIG. 9, gBDLD exerts a dose-dependent inhibition of HCMV infectivity in the cells tested.

In data set [4] the target is Normal human dermal fibroblasts. Kind of data set: Protein binding assay, gBDLD to fibroblasts (His-tag ELISA). The method, then: Normal human dermal fibroblasts were chilled to 4° C., washed three times with cold MES buffer and blocked with 1 mg/mL bovine serum albumin (BSA) for 30 minutes at 4° C. Unbound BSA was removed with cold MES washes (×4). The indicated amounts of gBDLD were added to each well for 90 minutes at 4° C. Cells were then washed three times with cold MES, twice with cold (phosphate-buffered saline (PBS) and fixed with 3% paraformaldehyde. An ELISA was then performed probing with anti-His rabbit polyclonal antibody (Santa Cruz Biotechnology, Santa Cruz, Calif.) and anti-rabbit HRP (Pierce). Absorbance was measured at 405 nm.
FIG. 7 is a graph depicting the results of a gBDLD binding assay (performed as described previously). Here, binding was measured by absorbance at 405 nm. […] To generate the data, human fibroblasts were incubated with gBDLD for the indicated times at 4° C. Cells were then washed, fixed and an ELISA was performed probing for the gBDLD […] his-tag. […]
FIG. 8 is a graph depicting gBDLD binding to human fibroblasts. As is readily apparent from FIG. 8, this binding is dose-dependent and saturable. […] After three IVIES washes and two PBS washes, cells were fixed in 3% paraformaldehyde and a His-tag ELISA was performed to quantitate gBDLD bound to cells.
(ELISA stands for enzyme-linked immunosorbent assay.)

Data set [5] relates to NHDF cells. Kind of data set: Cytoskeletal rearrangement, actin staining with phalloidin. It is filed as cell-based, human. The settings on record: compared to buffer alone. The text has this:
β1 integrins are known inducers of broad signal transduction events. […] To test the role of gBDLD in mediating signaling events, we stimulated NHDF cells with buffer alone, gBDLD, or a known cytoskeletal reorganizer (EGF), followed by actin staining with phalloidin.

The subject of data set [6] is diI-labeled HCMV. It is filed as cell-based, Human cytomegalovirus. To be noted: gBDLD or BSA 320 μg/mL, soluble heparin 50 μg/mL; 24 hours post-infection.
Data set [7] deals with T2, β3 integrin (Homo sapiens, UniProt P05106).
T2 construct: endogenous in cells; host or cells: Normal Human Dermal Fibroblasts (NHDF), detergent lysate
T2 sequence (P05106 27-788): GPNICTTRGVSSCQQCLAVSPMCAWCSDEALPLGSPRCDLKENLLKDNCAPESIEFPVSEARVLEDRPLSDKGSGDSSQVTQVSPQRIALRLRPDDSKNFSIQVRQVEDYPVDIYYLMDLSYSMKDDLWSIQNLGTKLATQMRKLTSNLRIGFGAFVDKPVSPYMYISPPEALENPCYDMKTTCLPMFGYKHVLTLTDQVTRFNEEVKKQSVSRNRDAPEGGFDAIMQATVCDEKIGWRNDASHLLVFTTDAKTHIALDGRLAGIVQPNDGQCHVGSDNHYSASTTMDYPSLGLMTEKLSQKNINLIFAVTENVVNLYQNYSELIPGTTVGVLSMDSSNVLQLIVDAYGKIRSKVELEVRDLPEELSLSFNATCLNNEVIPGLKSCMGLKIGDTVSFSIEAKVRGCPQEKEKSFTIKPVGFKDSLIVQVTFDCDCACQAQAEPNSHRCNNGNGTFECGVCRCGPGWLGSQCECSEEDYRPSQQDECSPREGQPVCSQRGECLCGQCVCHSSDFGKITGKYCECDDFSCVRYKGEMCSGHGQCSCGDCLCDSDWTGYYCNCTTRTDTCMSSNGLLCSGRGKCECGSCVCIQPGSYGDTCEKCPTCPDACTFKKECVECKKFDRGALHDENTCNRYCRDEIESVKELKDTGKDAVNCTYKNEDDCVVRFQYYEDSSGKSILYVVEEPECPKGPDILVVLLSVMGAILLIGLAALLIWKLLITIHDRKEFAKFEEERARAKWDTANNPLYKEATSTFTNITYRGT
Kind of data set: Integrin co-immunoprecipitation assay, β3. It is filed as binding. The settings on record: human fibroblast lysates, nickel beads. As for the experimental part: as §1, §2, §3

T1 sequence (P05556 21-798): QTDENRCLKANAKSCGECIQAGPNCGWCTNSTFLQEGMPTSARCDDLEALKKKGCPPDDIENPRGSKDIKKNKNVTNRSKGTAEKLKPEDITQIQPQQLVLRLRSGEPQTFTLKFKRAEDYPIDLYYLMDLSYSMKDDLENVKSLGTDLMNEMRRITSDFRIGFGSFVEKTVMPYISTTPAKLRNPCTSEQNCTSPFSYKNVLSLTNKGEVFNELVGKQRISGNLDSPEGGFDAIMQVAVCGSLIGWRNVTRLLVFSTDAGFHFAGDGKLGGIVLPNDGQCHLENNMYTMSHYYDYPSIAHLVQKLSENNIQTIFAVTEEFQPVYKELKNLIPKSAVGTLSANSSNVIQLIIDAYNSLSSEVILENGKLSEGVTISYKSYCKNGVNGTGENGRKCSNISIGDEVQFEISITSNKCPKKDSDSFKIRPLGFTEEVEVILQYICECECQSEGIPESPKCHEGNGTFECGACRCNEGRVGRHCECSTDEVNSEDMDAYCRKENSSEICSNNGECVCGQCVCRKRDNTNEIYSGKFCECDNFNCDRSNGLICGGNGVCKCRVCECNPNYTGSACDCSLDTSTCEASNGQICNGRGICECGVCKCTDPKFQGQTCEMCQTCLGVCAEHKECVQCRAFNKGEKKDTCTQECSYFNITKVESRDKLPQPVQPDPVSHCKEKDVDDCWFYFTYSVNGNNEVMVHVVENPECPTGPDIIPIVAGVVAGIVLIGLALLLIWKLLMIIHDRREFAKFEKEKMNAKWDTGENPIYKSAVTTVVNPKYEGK

B1: gBDLD: amino acids 57-146 of HCMV AD 169 glycoprotein B disintegrin-like domain, His-tagged, expressed in E. coli (protein)
chain: VTSSEAVSHRANETIYNTTLKYGDVVGVNTTKYPYRVCSMAQGTDLIRFERNIICTSMKPINEDLDEGIMVVYKRNIVAHTFKVRVYQKV
modifications: left off: small tags and cut ends
notes: amino acids 57-146 of HCMV AD 169 glycoprotein B disintegrin-like domain, His-tagged, expressed in E. coli
With B1, the Solubility entry in data set [1] is on record as “approximately 1 mg/mL”. In data set [2], the “interaction with β1 integrin (pull down, Western blot)” value was “interacts”. Besides, the “IC50 for HCMV neutralization” value in data set [3] is 20.5 µg/mL. Moreover, the IC50 in data set [3] (read-out: IC50 for HCMV neutralization) was determined as 1960 nM. The “kinetics of gBDLD binding to human fibroblasts” value in data set [4] (4° C., ELISA for his-tag) is on record as “rapid kinetics”. Besides, in data set [4] (60 minutes, after BSA block), the “concentration at which gBDLD binding to fibroblast monolayers reached saturation” value was determined as 12.5 µg/mL. In data set [5], the “reorganization of the cytoskeleton” value is reported as “triggered a dramatic reorganization of the cytoskeleton”. The “HCMV fusion (dye transfer) and gene expression” value in data set [6] is “complete block”. In data set [7], the “interaction with β3 integrin (pull down, Western blot)” value is “does not interact”.

B2: EGF: known cytoskeletal reorganizer (protein, UniProt P01133 23-1207, looked up)
Pro-epidermal growth factor: PQHWSCPEGTLAGNGNSTCVGPAPFLIFSHGNSIFRIDTEGTNYEQLVVDAGVSVIMDFHYNEKRIYWVDLERQLLQRVFLNGSRQERVCNIEKNVSGMAINWINEEVIWSNQQEGIITVTDMKGNNSHILLSALKYPANVAVDPVERFIFWSSEVAGSLYRADLDGVGVKALLETSEKITAVSLDVLDKRLFWIQYNREGSNSLICSCDYDGGSVHISKHPTQHNLFAMSLFGDRIFYSTWKMKTIWIANKHTGKDMVRINLHSSFVPLGELKVVHPLAQPKAEDDTWEPEQKLCKLRKGNCSSTVCGQDLQSHLCMCAEGYALSRDRKYCEDVNECAFWNHGCTLGCKNTPGSYYCTCPVGFVLLPDGKRCHQLVSCPRNVSECSHDCVLTSEGPLCFCPEGSVLERDGKTCSGCSSPDNGGCSQLCVPLSPVSWECDCFPGYDLQLDEKSCAASGPQPFLLFANSQDIRHMHFDGTDYGTLLSQQMGMVYALDHDPVENKIYFAHTALKWIERANMDGSQRERLIEEGVDVPEGLAVDWIGRRFYWTDRGKSLIGRSDLNGKRSKIITKENISQPRGIAVHPMAKRLFWTDTGINPRIESSSLQGLGRLVIASSDLIWPSGITIDFLTDKLYWCDAKQSVIEMANLDGSKRRRLTQNDVGHPFAVAVFEDYVWFSDWAMPSVMRVNKRTGKDRVRLQGSMLKPSSLVVVHPLAKPGADPCLYQNGGCEHICKKRLGTAWCSCREGFMKASDGKTCLALDGHQLLAGGEVDLKNQVTPLDILSKTRVSEDNITESQHMLVAEIMVSDQDDCAPVGCSMYARCISEGEDATCQCLKGFAGDGKLCSDIDECEMGVPVCPPASSKCINTEGGYVCRCSEGYQGDGIHCLDIDECQLGEHSCGENASCTNTEGGYTCMCAGRLSEPGLICPDSTPPPHLREDDHHYSVRNSDSECPLSHDGYCLHDGVCMYIEALDKYACNCVVGYIGERCQYRDLKWWELRHAGHGQQQKVIVVAVCVVVLVMLLLLSLWGAHYYRTQKLLSKNPKNPYEESSRDVRSRRPADTEDGMSSCPQPWFVVIKEHQDLKNGGQPVAGEDGQAADGSMQPTSWRQEPQLCGMGTEQGCWIPVSSDKGSCPQVMERSFHMPSYGTQTLEGGVEKPHSLLSANPLWQQRALDPPHQMELTQ
modifications: Pro-epidermal growth factor
notes: known cytoskeletal reorganizer
In the case of B2, the “reorganization of the cytoskeleton” value in data set [5] is on record as “triggered a dramatic reorganization of the cytoskeleton”.
